According to paper PMC2133023:

Target: GAL4 DNA-binding domain fusion of the neuroglian^167 cytoplasmic domain with Y1234F (Drosophila)
Assay: two-hybrid

- reduction of binding against wild type (β-galactosidase): 50%
Substance: GAL4 activation domain–Drosophila ankyrin fusion protein (from UniProt Q24241 1-1549) (natural protein)
